This note sets out measurements from publication PMC2094074 (Nucleic Acids Research, 2007).

B1: His-tagged hTDG(67-308) (domain or fragment, human, UniProt Q13569 67-308, looked up)
chain: TTEPKQPVEPKKPVESKKSGKSAKSKEKQEKITDTFKVKRKVDRFNGVSEAELLTKTLPDILTFNLDIVIIGINPGLMAAYKGHHYPGPGNHFWKCLFMSGLSEVQLNHMDDHTLPGKYGIGFTNMVERTTPGSKDLSSKEFREGGRILVQKLQKYQPRIAVFNGKCIYEIFSKEVFGVKVKNLEFGLQPHKIPDTETLCYVMPSSSARCAQFPRAQDKVHYYIKLKDLRDQLKGIERNMDV
B2: His-tagged hTDG-ΔC1(1-308) (domain or fragment, human, UniProt Q13569 1-308, looked up)
chain: MEAENAGSYSLQQAQAFYTFPFQQLMAEAPNMAVVNEQQMPEEVPAPAPAQEPVQEAPKGRKRKPRTTEPKQPVEPKKPVESKKSGKSAKSKEKQEKITDTFKVKRKVDRFNGVSEAELLTKTLPDILTFNLDIVIIGINPGLMAAYKGHHYPGPGNHFWKCLFMSGLSEVQLNHMDDHTLPGKYGIGFTNMVERTTPGSKDLSSKEFREGGRILVQKLQKYQPRIAVFNGKCIYEIFSKEVFGVKVKNLEFGLQPHKIPDTETLCYVMPSSSARCAQFPRAQDKVHYYIKLKDLRDQLKGIERNMDV
B3: GST-hRad1 (natural protein, human, UniProt O60671 1-282, looked up)
chain: MPLLTQQIQDEDDQYSLVASLDNVRNLSTILKAIHFREHATCFATKNGIKVTVENAKCVQANAFIQAGIFQEFKVQEESVTFRINLTVLLDCLSIFGSSPMPGTLTALRMCYQGYGYPLMLFLEEGGVVTVCKINTQEPEETLDFDFCSTNVINKIILQSEGLREAFSELDMTSEVLQITMSPDKPYFRLSTFGNAGSSHLDYPKDSDLMEAFHCNQTQVNRYKISLLKPSTKALVLSCKVSIRTDNRGFLSLQYMIRNEDGQICFVEYYCCPDEEVPESES
B4: GST-hRad9 (natural protein, human, UniProt Q99638 1-391, looked up)
chain: MKCLVTGGNVKVLGKAVHSLSRIGDELYLEPLEDGLSLRTVNSSRSAYACFLFAPLFFQQYQAATPGQDLLRCKILMKSFLSVFRSLAMLEKTVEKCCISLNGRSSRLVVQLHCKFGVRKTHNLSFQDCESLQAVFDPASCPHMLRAPARVLGEAVLPFSPALAEVTLGIGRGRRVILRSYHEEEADSTAKAMVTEMCLGEEDFQQLQAQEGVAITFCLKEFRGLLSFAESANLNLSIHFDAPGRPAIFTIKDSLLDGHFVLATLSDTDSHSQDLGSPERHQPVPQLQAHSTPHPDDFANDDIDSYMIAMETTIGNEGSRVLPSISLSPGPQPPKSPGPHSEEEDEAEPSTVPGTPPPKKFRSLFFGSILAPVRSPQGPSPVLAEDSEGEG
B5: GST-hTDG-N(1-124) (domain or fragment, human, UniProt Q13569 1-124, looked up)
chain: MEAENAGSYSLQQAQAFYTFPFQQLMAEAPNMAVVNEQQMPEEVPAPAPAQEPVQEAPKGRKRKPRTTEPKQPVEPKKPVESKKSGKSAKSKEKQEKITDTFKVKRKVDRFNGVSEAELLTKTL
B6: His-tagged hHus1 expressed in E. coli (natural protein, human, UniProt O60921 1-280, looked up)
chain: MKFRAKIVDGACLNHFTRISNMIAKLAKTCTLRISPDKLNFILCDKLANGGVSMWCELEQENFFNEFQMEGVSAENNEIYLELTSENLSRALKTAQNARALKIKLTNKHFPCLTVSVELLSMSSSSRIVTHDIPIKVIPRKLWKDLQEPVVPDPDVSIYLPVLKTMKSVVEKMKNISNHLVIEANLDGELNLKIETELVCVTTHFKDLGNPPLASESTHEDRNVEHMAEVHIDIRKLLQFLAGQQVNPTKALCNIVNNKMVHFDLLHEDVSLQYFIPALS
B7: GST-hHus1 (natural protein, human, UniProt O60921 1-280, looked up)
chain: B6 chain

Holding throughout (assay): pull-down
For the assay “GST-hRad1”, the target named is B3.
The assay “GST-hRad9” concerns the target B4.
In assay [1] the target is His-tagged human thymine DNA glycosylase, full length (hTDG-full, residues 1-410) (human, UniProt Q13569 1-410).
The target in assay [2] is B2.
Assay [3] has as its target B6.
In the next assay the target is GST-hTDG (full length) (human, UniProt Q13569 1-410).

Turning to B1, the binding result in the assay with GST-hRad1 and in the assay with GST-hRad9 was “binds” in each case. As for B2, the binding result with GST-hRad9 is “binds”. Turning to B3, the binding result in assay [1] and in assay [2] was “binds” throughout.

On to B4, for which, in assay [1], the binding result is given as “binds”.

On to B5, for which the binding result in assay [3] is on record as “binds”. On to B6, for which, in the assay with GST-hTDG (full length), the binding result is “binds”. Take B7: the binding result in assay [2] is reported as “binds”.
